Source: PMC11924222, “Integrated Study of Fluorescence Enhancement in the Y176H Variant of Cyanobacterial Phytochrome Cph1” (Biochemistry, 2025)

B1: Cph1 Y176H variant of the Cph1 photosensory module (residues 1-514; NTS, nPAS, GAF and PHY domains), crystallization construct with N141R (domain or fragment, Synechocystis 6803, UniProt Q55168 1-514, looked up)
chain: MATTVQLSDQSLRQLETLAIHTAHLIQPHGLVVVLQEPDLTISQISANCTGILGRSPEDLLGRTLGEVFDSFQIDPIQSRLTAGQISSLNPSKLWARVMGDDFVIFDGVFHRNSDGLLVCELEPAYTSDNLPFLGFYHMARAALNRLRQQANLRDFYDVIVEEVRRMTGFDRVMLHRFDENNHGDVIAEDKRDDMEPYLGLHYPESDIPQPARRLFIHNPIRVIPDVYGVAVPLTPAVNPSTNRAVDLTESILRSAYHCHLTYLKNMGVGASLTISLIKDGHLWGLIACHHQTPKVIPFELRKACEFFGRVVFSNISAQEDTETFDYRVQLAEHEAVLLDKMTTAADFVEGLTNHPDRLLGLTGSQGAAICFGEKLILVGETPDEKAVQYLLQWLENREVQDVFFTSSLSQIYPDAVNFKSVASGLLAIPIARHNFLLWFRPEVLQTVNWGGDPNHAYEATQEDGKIELHPRQSFDLWKEIVRLQSLPWQSVEIQSALALKKAIVNLILRQAEE
modifications: phycocyanobilin (PCB) chromophore covalently attached to Cys259
notes: Cyanobacterial phytochrome Cph1 from Synechocystis 6803, photosensor residues 1-514 (NTS, nPAS, GAF and PHY domains), with Y176H and, for crystallization, N141R; PDB 2VEA is the wild-type parent; not shown: His6, N-terminal, cleaved

Columns and labels:
[1] = target: His260 (UniProt position 260, SAYHCHLTYLK); test: not stated for the pKa value; the article cites resonance Raman, MAS NMR and absorption studies; conditions: Pr (dark-adapted) state, PCB-bound holoprotein; cited from earlier work
[2] = target: the molecule itself; test: crystal structure; X-ray, 3.7 Å; crystals grown in 0.3 M ammonium formate, 0.1 M HEPES pH 6.9, 18% Sokalan CP7; four protomers in the asymmetric unit

| Molecule | pKa [1] | binding result [2] |
| --- | --- | --- |
| Phytochrome-like protein Cph1 (cyanobacterial phytochrome 1), photosensory module, wild type (Synechocystis sp. PCC 6803) | 7.5 |  |
| B1 |  | binds |
